Measurements taken from publication PMC13507242.
pKd: −log10 of the molar value.

Tests used:
[1] = molecular target: CD33^M ectodomain (CD33 ECD), residues 21-232, glycosylated (human); assay: AUC; sedimentation velocity (0.4 mg/ml, 40,000 rpm) and sedimentation equilibrium (0.2, 0.1, 0.05 mg/ml, 16,000 or 20,000 rpm), 20 °C, 20 mM HEPES, 200 mM NaCl, pH 7.5; dimer to monomers
[2] = molecular target: CD33^M ectodomain (CD33^M ECD), residues 21-232, Endo Hf-deglycosylated (human); assay: SEC-MALS; Superdex 75 10/300 GL, 20 mM HEPES, 200 mM NaCl, pH 7.5; loaded at 100 and 20 µM (<10 and 2 µM on the column); dimer to monomers
[3] = molecular target: CD33^M ectodomain (CD33^M ECD), residues 21-232, Endo Hf-deglycosylated (human); assay: AUC; sedimentation velocity (0.4 mg/ml, 40,000 rpm) and sedimentation equilibrium (0.2, 0.1, 0.05 mg/ml, 16,000 or 20,000 rpm), 20 °C, 20 mM HEPES, 200 mM NaCl, pH 7.5; dimer to monomers
[4] = molecular target: CD33^M ectodomain (CD33^M ECD), residues 21-232, Endo Hf-deglycosylated (human); assay: BLI; Octet RED384, 30 °C, 20 mM HEPES, 200 mM NaCl, 1 mg/mL casein, pH 7.5; Ni-NTA biosensors loaded with His6 deglycosylated CD33^M ECD WT or R119A; CLU 0.0025-5 µM; steady state (895-900 s), Hill equation; avidity
[5] = molecular target: endogenous CD33^M of human U937 monocytic cells (human (endogenous in U937)); assay: co-IP; U937 cells (endogenous CD33) exposed to CLU (60 nM), desCLU, rCLU or CLU + Aβ; CD33 immunoprecipitated from lysates, blot for CLU
[6] = molecular target: endogenous CD33^M of human U937 monocytic cells (human (endogenous in U937))
[7] = molecular target: HA-tagged CD33^M (full-length major isoform) expressed in HEK293 / HEK293T cells (human); assay: co-IP; HEK293 / HEK293T cells expressing HA-tagged CD33 incubated with CLU (30 nM in the methods, 60 nM in the results), washed, lysed in 1% CHAPSO/TBS; IP with anti-HA, blot for CLU
[8] = molecular target: CD33^M ectodomain (CD33^M ECD), residues 21-232, Endo Hf-deglycosylated (human); assay: MST; Monolith NT.115, 23 °C, deglycosylated CD33 ECD labelled with Alexa Fluor 647; 20 mM HEPES pH 7.5, 150 mM NaCl, 0.05% Tween-20
[9] = molecular target: CD33^M ectodomain (CD33^M ECD), residues 21-232, Endo Hf-deglycosylated (human); assay: BLI; Octet RED384, 30 °C, 20 mM HEPES, 200 mM NaCl, 1 mg/mL casein, pH 7.5; Ni-NTA biosensors loaded with His6 deglycosylated CD33^M ECD WT or R119A; CLU 0.0025-5 µM; steady state (895-900 s), Hill equation; avidity; remark: listed apart in the source

endogenous CD33^M of human U937 monocytic cells (human (endogenous in U937)), sequence (P20138 18-364): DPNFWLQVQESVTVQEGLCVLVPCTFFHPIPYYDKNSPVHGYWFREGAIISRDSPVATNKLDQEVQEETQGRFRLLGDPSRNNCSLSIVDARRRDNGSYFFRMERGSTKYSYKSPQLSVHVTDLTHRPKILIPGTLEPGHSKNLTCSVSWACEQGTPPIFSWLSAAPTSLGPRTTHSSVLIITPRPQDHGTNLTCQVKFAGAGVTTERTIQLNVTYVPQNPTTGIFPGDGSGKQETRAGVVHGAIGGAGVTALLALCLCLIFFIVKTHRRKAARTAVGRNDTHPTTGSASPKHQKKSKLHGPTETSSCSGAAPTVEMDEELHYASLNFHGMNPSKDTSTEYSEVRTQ
HA-tagged CD33^M (full-length major isoform) expressed in HEK293 / HEK293T cells (human), sequence (P20138 18-364): as above

Work on “CD33^M ectodomain (CD33 ECD), residues 21-232, glycosylated (domain or fragment)” yielded a pKd [1] of 6.52.
With “CD33^M ectodomain (CD33^M ECD), residues 21-232, Endo Hf-deglycosylated (domain or fragment)” the pKd [2] was 7.00, the stoichiometry N [2] was 2 and the pKd [3] was 6.15.
“CLU + Aβ1-42 oligomers (CLU/Aβ 1-42 mixture) (from UniProt P10909 23-227; P10909 228-449; P05067 672-713) (complex)” showed a pKd [4] of 7.55, a CD33-bound CLU in the co-IP (panel e) [5] of 1.06 and a CD33 ITIM tyrosine phosphorylation (CD33^M-pTyr) in U937 cells, relative to no treatment (relative to no treatment (1.00)) [6] of 11.9. For the same substance, the CD33-bound CLU in the co-IP (panel d) [7] was 1.38.
In the case of “native sialylated clusterin (CLU) purified from human plasma (from UniProt P10909 23-227; P10909 228-449) (ligand)”, the pKd [4] was 7.55, the pKd [8] was 7.26 and the CD33-bound CLU in the co-IP (panel e) [5] was 1.04. For the same substance, the ratio of CLU to CD33 band intensities [5] was 1.23 arb. units, the pKd [9] was 7.54 and the CD33 ITIM tyrosine phosphorylation (CD33^M-pTyr) in U937 cells, relative to no treatment (relative to no treatment (1.00)) [6] was 6.28. For the same substance, the CD33-bound CLU in the co-IP (panel d) [7] was 1.15, the ratio of co-precipitated CLU to CD33 band intensities [7] was 0.85 arb. units and the ratio of co-precipitated CLU to CD33 band intensities (panel c) [7] was 0.425 arb. units. The ratio of co-precipitated CLU to CD33 band intensities, cells expressing CD33^M + CD33^m [7] was 0.45 arb. units.
